From publication PMC6662825 (2019)

Biological target: T1, MBP-ZCCHC8^91–211-(GS)3-eYFP (human, UniProt Q6NZY4 91-211)
T1 chain: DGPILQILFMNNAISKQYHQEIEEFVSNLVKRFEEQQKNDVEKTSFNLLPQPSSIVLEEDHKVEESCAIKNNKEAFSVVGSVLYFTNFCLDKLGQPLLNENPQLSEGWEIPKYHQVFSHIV
Experiment: MST

- Kd: 327 nM
B1: MTR4-KOW (domain or fragment)
chain: HKPKYCLPFLQPGRLVKVKNEGDDFGWGVVVNFSKKSNVKPNSGELDPLYVVEVLLRCSKESLKNSATEAAKPAKPDEKGEMQVVPVLVHLLSAISSVRLYIPKDLRPVDNRQSVLKSIQEVQKRFPDGIPLLDPIDDMGIQD
